Series [1] is described as follows: western blot of total FOXP3, HEK 293. The settings on record: control: no OGT/OGA overexpression or no inhibitor. On the technique in general: In western blotting, separated proteins are transferred to a membrane and probed.
Series [2] in a line: CHX chase, HEK 293, western blot. The settings on record: control: no OGT/OGA overexpression or no inhibitor.
Series [3] in a line: CHX chase, HEK 293, OGT overexpression, western blot. The settings on record: glycan lost; control: wild-type FOXP3.
Series [4] can be described thus: retroviral transduction of CD4+CD25- T cells, FOXP3 MFI. The settings on record: glycan lost; control: wild-type FOXP3.
Series [5] can be described thus: not described in main text (Supplementary Fig. 2F). The settings on record: glycan lost; control: wild-type FOXP3.

From publication PMC6341091 come the findings set out here.

B1: FOXP3: TMG (protein)
parent chain: MPNPRPAKPMAPSLALGPSPGVLPSWKTAPKGSELLGTRGSGGPFQGRDLRSGAHTSSSLNPLPPSQLQLPTVPLVMVAPSGARLGPSPHLQALLQDRPHFMHQLSTVDAHAQTPVLQVRPLDNPAMISLPPPSAATGVFSLKARPGLPPGINVASLEWVSREPALLCTFPRSGTPRKDSNLLAAPQGSYPLLANGVCKWPGCEKVFEEPEEFLKHCQADHLLDEKGKAQCLLQREVVQSLEQQLELEKEKLGAMQAHLAGKMALAKAPSVASMDKSSCCIVATSTQGSVLPAWSAPREAPDGGLFAVRRHLWGSHGNSSFPEFFHNMDYFKYHNMRPPFTYATLIRWAILEAPERQRTLNEIYHWFTRMFAYFRNHPATWKNAIRHNLSLHKCFVRVESEKGAVWTVDEFEFRKKRSQRPNKCSNPCP
Take B1: in series [1] (glycan gained), the expression_or_secretion result is listed as “increases”. The degradation_or_half_life result in series [2] (glycan gained) is “increases”.

B2: FOXP3: OGT overexpression (protein)
parent chain: MPNPRPAKPMAPSLALGPSPGVLPSWKTAPKGSELLGTRGSGGPFQGRDLRSGAHTSSSLNPLPPSQLQLPTVPLVMVAPSGARLGPSPHLQALLQDRPHFMHQLSTVDAHAQTPVLQVRPLDNPAMISLPPPSAATGVFSLKARPGLPPGINVASLEWVSREPALLCTFPRSGTPRKDSNLLAAPQGSYPLLANGVCKWPGCEKVFEEPEEFLKHCQADHLLDEKGKAQCLLQREVVQSLEQQLELEKEKLGAMQAHLAGKMALAKAPSVASMDKSSCCIVATSTQGSVLPAWSAPREAPDGGLFAVRRHLWGSHGNSSFPEFFHNMDYFKYHNMRPPFTYATLIRWAILEAPERQRTLNEIYHWFTRMFAYFRNHPATWKNAIRHNLSLHKCFVRVESEKGAVWTVDEFEFRKKRSQRPNKCSNPCP
On to B2, for which, in series [1] (glycan gained), the expression_or_secretion entry is “increases”. In series [2] (glycan gained), the degradation_or_half_life result is recorded as “increases”.

B3: FOXP3: OGA overexpression (protein)
parent chain: MPNPRPAKPMAPSLALGPSPGVLPSWKTAPKGSELLGTRGSGGPFQGRDLRSGAHTSSSLNPLPPSQLQLPTVPLVMVAPSGARLGPSPHLQALLQDRPHFMHQLSTVDAHAQTPVLQVRPLDNPAMISLPPPSAATGVFSLKARPGLPPGINVASLEWVSREPALLCTFPRSGTPRKDSNLLAAPQGSYPLLANGVCKWPGCEKVFEEPEEFLKHCQADHLLDEKGKAQCLLQREVVQSLEQQLELEKEKLGAMQAHLAGKMALAKAPSVASMDKSSCCIVATSTQGSVLPAWSAPREAPDGGLFAVRRHLWGSHGNSSFPEFFHNMDYFKYHNMRPPFTYATLIRWAILEAPERQRTLNEIYHWFTRMFAYFRNHPATWKNAIRHNLSLHKCFVRVESEKGAVWTVDEFEFRKKRSQRPNKCSNPCP
B3: the expression_or_secretion result in series [1] (glycan lost) is “decreases”. In series [2] (glycan lost), the degradation_or_half_life result was “decreases”.

B4: FOXP3: FOXP3-5A (protein)
parent chain: MPNPRPAKPMAPSLALGPSPGVLPSWKTAPKGSELLGTRGSGGPFQGRDLRSGAHTSSSLNPLPPSQLQLPTVPLVMVAPSGARLGPSPHLQALLQDRPHFMHQLSTVDAHAQTPVLQVRPLDNPAMISLPPPSAATGVFSLKARPGLPPGINVASLEWVSREPALLCTFPRSGTPRKDSNLLAAPQGSYPLLANGVCKWPGCEKVFEEPEEFLKHCQADHLLDEKGKAQCLLQREVVQSLEQQLELEKEKLGAMQAHLAGKMALAKAPSVASMDKSSCCIVATSTQGSVLPAWSAPREAPDGGLFAVRRHLWGSHGNSSFPEFFHNMDYFKYHNMRPPFTYATLIRWAILEAPERQRTLNEIYHWFTRMFAYFRNHPATWKNAIRHNLSLHKCFVRVESEKGAVWTVDEFEFRKKRSQRPNKCSNPCP
As to B4, the degradation_or_half_life result in series [3] was “decreases”. Moreover, the expression_or_secretion result in series [4] is on record as “decreases”. Moreover, in series [5], the “other: OGT-induced transcriptional suppression activity” value was “abolishes”.

B5: FOXP3: ST045849 (protein)
parent chain: MPNPRPAKPMAPSLALGPSPGVLPSWKTAPKGSELLGTRGSGGPFQGRDLRSGAHTSSSLNPLPPSQLQLPTVPLVMVAPSGARLGPSPHLQALLQDRPHFMHQLSTVDAHAQTPVLQVRPLDNPAMISLPPPSAATGVFSLKARPGLPPGINVASLEWVSREPALLCTFPRSGTPRKDSNLLAAPQGSYPLLANGVCKWPGCEKVFEEPEEFLKHCQADHLLDEKGKAQCLLQREVVQSLEQQLELEKEKLGAMQAHLAGKMALAKAPSVASMDKSSCCIVATSTQGSVLPAWSAPREAPDGGLFAVRRHLWGSHGNSSFPEFFHNMDYFKYHNMRPPFTYATLIRWAILEAPERQRTLNEIYHWFTRMFAYFRNHPATWKNAIRHNLSLHKCFVRVESEKGAVWTVDEFEFRKKRSQRPNKCSNPCP
On to B5, for which the expression_or_secretion entry in series [1] (glycan lost) is “decreases”. Moreover, in series [2] (glycan lost), the degradation_or_half_life result was “decreases”.
